Assay results reported in patent EP4793287A1, “TUMOR MICROENVIRONMENT SPECIFICALLY ACTIVATED CD47 ANTIBODY” (Affinity (Shanghai) Biopharmaceutical Co., Ltd., priority 2023, dated 2025).

Legend:
[1] = tested on: Human Burkitt's lymphoma RAJI cells; assay: In vivo efficacy, subcutaneous RAJI transplanted tumor model; set-up: species or system NOD-SCID mice; details: for T/C ratio / TGI inhibition rate: after 31 days of treatment
Description: (§1) Human Burkitt's lymphoma RAJI cells were subcutaneously transplanted into NOD-SCID mice to establish an in vivo model. RAJI cells were cultured according to standard culture conditions and were collected during the exponential growth phase for counting. Each mouse was inoculated on the right flank with 1×10^7 human Burkitt's lymphoma RAJI cells (suspended in 0.1 ml of basal medium). After inoculation, when the tumors grew to 80-114 mm^3 (7 days post-tumor implantation), the mice were randomly grouped based on body weight and tumor volume. The experimental groups were divided as follows:
(§2) Treatment was started on the day of grouping. Mice were weighed, and tumor volumes were measured twice a week. Tumor volume was calculated using the formula: tumor volume = 1/2 × length × width × width (mm^3). The tumor growth inhibition rate TGI (%) was calculated as [1 - (Tt - T0) / (Ct - C0)] × 100%. The tumor inhibition rate T/C (%) was calculated as (Tt/T0) / (Ct/C0) × 100%. T0 represents the tumor volume of the test antibody group at the time of grouping; Tt represents the tumor volume of the test antibody group at each measurement; C0 represents the average tumor volume of the PBS group at the time of grouping; Ct represents the average tumor volume of the PBS group at each measurement.

[2] = tested on: Human small cell lung cancer SHP-77 cells; assay: In vivo efficacy, subcutaneous SHP-77 tumor model (Example 11); set-up: species or system CB17-SCID mice; details: for T/C ratio / TGI inhibition rate: after 38 days of treatment
Description: as §1, with “small cell lung cancer SHP-77” for “Burkitt's lymphoma RAJI”, “CB17-SCID” for “NOD-SCID”, “SHP-77” for “RAJI”, “2.5×10^6” for “1×10^7”, “60-103” for “80-114”, “(5” for “(7”
as §2

[3] = In vivo hematological toxicity, blood cell counting; set-up: species or system hSIRPA/hCD47 (C57 background) mice; details: for PLT Count Mean / RBC Count Mean: 5mg/kg single intraperitoneal dose
Description: hSIRPA/hCD47 (C57 background) mice were randomly divided into 4 groups based on body weight, with 3 mice per group. The hematological toxicity of 70H1.IgG1.Y61C+20K and 70H1.IgG1.Y61C+40K was studied via intraperitoneal injection.
The experimental groups were divided as follows: • 70H1.IgG1.Y61C+20K (5 mg/kg) group, • 70H1.IgG1.Y61C+40K (10 mg/kg) group, • 70H1.IgG1.Y61C+40K (20 mg/kg) group, • 70H1.IgG1.Y61C+40K (30 mg/kg) group.
After grouping, a single dose of the corresponding antibody was administered intraperitoneally to the mice. Blood cell counting was performed on the mice at D0 (pre-dose), D2, D5, D7, D9, and D12.

B1: CD47 TMEAbody: CD47 TMEAbody conjugated with PEG of approximately 20K molecular weight (i.e., PEG20K) (conjugate)
VH: QQQLEESGGGLVKPEGSLTLTCTASGFSFSSGYDMCWVRQAPGRGLEWIACIYTRSSGGTCYASWAKGRFTISKTSSTVDLRMTSLTAADTATYFCAGGRSSYRLNLWGQGALVTVSS
VL: DVVMTQTPSPVEAAVGGTVTIKCQASQSISNELSWYQQKPGQPPKLLIYRASTLESGVSSRFKGSGSGTEFTLTISDLECADAATYYCQSTFYGDYGNAFGGGTEVVVK
[1]; 0.3 mg/kg, D0
  Tumor Volume: 94.56 mm^3
[1]; 0.3 mg/kg, D3
  Tumor Volume: 123.83 mm^3
[1]; 0.3 mg/kg, D7
  Tumor Volume: 147.44 mm^3
[1]; 0.3 mg/kg, D10
  Tumor Volume: 232.04 mm^3
[1]; 0.3 mg/kg, D14
  Tumor Volume: 358.82 mm^3
[1]; 0.3 mg/kg, D17
  Tumor Volume: 511.34 mm^3
[1]; 0.3 mg/kg, D21
  Tumor Volume: 849.95 mm^3
[1]; 0.3 mg/kg, D24
  Tumor Volume: 1156.48 mm^3
[1]; 0.3 mg/kg, D28
  Tumor Volume: 1887.63 mm^3
[1]; 0.3 mg/kg, D31
  Tumor Volume: 2532.90 mm^3
[1]; 0.3 mg/kg
  T/C ratio: 93.73%
  TGI inhibition rate: 6.45%
[1]; 1 mg/kg, D0
  Tumor Volume: 94.25 mm^3
[1]; 1 mg/kg, D3
  Tumor Volume: 100.17 mm^3
[1]; 1 mg/kg, D7
  Tumor Volume: 116.36 mm^3
[1]; 1 mg/kg, D10
  Tumor Volume: 162.08 mm^3
[1]; 1 mg/kg, D14
  Tumor Volume: 214.12 mm^3
[1]; 1 mg/kg, D17
  Tumor Volume: 307.27 mm^3
[1]; 1 mg/kg, D21
  Tumor Volume: 384.91 mm^3
[1]; 1 mg/kg, D24
  Tumor Volume: 485.51 mm^3
[1]; 1 mg/kg, D28
  Tumor Volume: 679.76 mm^3
[1]; 1 mg/kg, D31
  Tumor Volume: 890.40 mm^3
[1]; 1 mg/kg
  T/C ratio: 33.06%
  TGI inhibition rate: 69.46%
[1]; 3 mg/kg, D0
  Tumor Volume: 93.15 mm^3
[1]; 3 mg/kg, D3
  Tumor Volume: 91.90 mm^3
[1]; 3 mg/kg, D7
  Tumor Volume: 81.07 mm^3
[1]; 3 mg/kg, D10
  Tumor Volume: 87.74 mm^3
[1]; 3 mg/kg, D14
  Tumor Volume: 92.16 mm^3
[1]; 3 mg/kg, D17
  Tumor Volume: 91.91 mm^3
[1]; 3 mg/kg, D21
  Tumor Volume: 129.68 mm^3
[1]; 3 mg/kg, D24
  Tumor Volume: 117.69 mm^3
[1]; 3 mg/kg, D28
  Tumor Volume: 125.24 mm^3
[1]; 3 mg/kg, D31
  Tumor Volume: 120.05 mm^3
[1]; 3 mg/kg
  T/C ratio: 4.51%
  TGI inhibition rate: 98.97%
[1]; 0.3-3 mg/kg
  tumor growth inhibition: significant tumor growth inhibition
[1]; during the treatment period
  changes in body weight: No significant changes in body weight
[2]; 0.3 mg/kg, D0
  Tumor Volume: 79.15 mm^3
[2]; 0.3 mg/kg, D3
  Tumor Volume: 63.51 mm^3
[2]; 0.3 mg/kg, D7
  Tumor Volume: 44.29 mm^3
[2]; 0.3 mg/kg, D10
  Tumor Volume: 42.63 mm^3
[2]; 0.3 mg/kg, D14
  Tumor Volume: 42.49 mm^3
[2]; 0.3 mg/kg, D17
  Tumor Volume: 44.81 mm^3
[2]; 0.3 mg/kg, D21
  Tumor Volume: 74.08 mm^3
[2]; 0.3 mg/kg, D24
  Tumor Volume: 116.17 mm^3
[2]; 0.3 mg/kg, D28
  Tumor Volume: 142.04 mm^3
[2]; 0.3 mg/kg, D31
  Tumor Volume: 194.29 mm^3
[2]; 0.3 mg/kg, D35
  Tumor Volume: 272.39 mm^3
[2]; 0.3 mg/kg, D38
  Tumor Volume: 373.67 mm^3
[2]; 0.3 mg/kg
  T/C ratio: 29.52%
  TGI inhibition rate: 75.38%
[2]; 1 mg/kg, D0
  Tumor Volume: 79.75 mm^3
[2]; 1 mg/kg, D3
  Tumor Volume: 69.70 mm^3
[2]; 1 mg/kg, D7
  Tumor Volume: 47.94 mm^3
[2]; 1 mg/kg, D10
  Tumor Volume: 36.61 mm^3
[2]; 1 mg/kg, D14
  Tumor Volume: 32.95 mm^3
[2]; 1 mg/kg, D17
  Tumor Volume: 20.93 mm^3
[2]; 1 mg/kg, D21
  Tumor Volume: 19.98 mm^3
[2]; 1 mg/kg, D24
  Tumor Volume: 27.75 mm^3
[2]; 1 mg/kg, D28
  Tumor Volume: 17.69 mm^3
[2]; 1 mg/kg, D31
  Tumor Volume: 21.42 mm^3
[2]; 1 mg/kg, D35
  Tumor Volume: 15.37 mm^3
[2]; 1 mg/kg, D38
  Tumor Volume: 14.44 mm^3
[2]; 1 mg/kg
  T/C ratio: 1.13%
  TGI inhibition rate: 105.46%
[2]; 3 mg/kg, D0
  Tumor Volume: 79.00 mm^3
[2]; 3 mg/kg, D3
  Tumor Volume: 65.86 mm^3
[2]; 3 mg/kg, D7
  Tumor Volume: 44.80 mm^3
[2]; 3 mg/kg, D10
  Tumor Volume: 33.94 mm^3
[2]; 3 mg/kg, D14
  Tumor Volume: 27.48 mm^3
[2]; 3 mg/kg, D17
  Tumor Volume: 24.62 mm^3
[2]; 3 mg/kg, D21
  Tumor Volume: 9.14 mm^3
[2]; 3 mg/kg, D24
  Tumor Volume: 13.52 mm^3
[2]; 3 mg/kg, D28
  Tumor Volume: 10.79 mm^3
[2]; 3 mg/kg, D31
  Tumor Volume: 17.13 mm^3
[2]; 3 mg/kg, D35
  Tumor Volume: 14.44 mm^3
[2]; 3 mg/kg, D38
  Tumor Volume: 12.85 mm^3
[2]; 3 mg/kg
  T/C ratio: 1.02%
  TGI inhibition rate: 105.53%
[2]; 0.3-3 mg/kg
  tumor growth inhibition: significant tumor growth inhibition
[2]; during the treatment period
  changes in body weight: No significant changes in body weight
[3]; D0 (pre-dose)
  PLT Count Mean: 1668.33 10^9/L
  RBC Count Mean: 8.53 10^12/L
[3]; D2
  PLT Count Mean: 1406.33 10^9/L
  RBC Count Mean: 6.56 10^12/L
[3]; D5
  PLT Count Mean: 1142.33 10^9/L
  RBC Count Mean: 7.48 10^12/L
[3]; D7
  PLT Count Mean: 1435.33 10^9/L
  RBC Count Mean: 9.62 10^12/L
[3]; D9
  PLT Count Mean: 1356.00 10^9/L
  RBC Count Mean: 9.55 10^12/L
[3]; D12
  PLT Count Mean: 1351.00 10^9/L
  RBC Count Mean: 9.45 10^12/L
[3]; 5 mg/kg, D2 post-administration
  change in red blood cells: reversible decrease in red blood cells
[3]; 5 mg/kg, D5 post-administration
  change in platelets: reversible decrease in platelets
